Source: paper PMC4495429 (Scientific Reports, 2015)

Legend:
[1] = biological target: T1, homoserine dehydrogenase (HseDH) (Pyrococcus horikoshii, UniProt O58802, K57A); test: crystal structure at […] Å (with NADPH); type: binding
T1 construct: gene PH1075; ordered residues 1-319 in each subunit (homodimer)
T1 sequence (O58802 1-319 K57A): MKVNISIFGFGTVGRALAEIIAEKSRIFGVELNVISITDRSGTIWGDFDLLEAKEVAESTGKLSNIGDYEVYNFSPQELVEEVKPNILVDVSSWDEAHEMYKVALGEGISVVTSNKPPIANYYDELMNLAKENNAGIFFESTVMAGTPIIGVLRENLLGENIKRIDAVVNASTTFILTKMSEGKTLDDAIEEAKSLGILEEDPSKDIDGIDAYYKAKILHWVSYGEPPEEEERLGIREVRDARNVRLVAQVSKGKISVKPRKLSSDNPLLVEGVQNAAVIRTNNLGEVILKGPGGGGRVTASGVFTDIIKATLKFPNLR

[2] = biological target: T2, homoserine dehydrogenase (HseDH) (Pyrococcus horikoshii, UniProt O58802); test: inhibition of NAD-dependent Hse oxidation, Morrison tight-binding fit; type: biochemical; parameters: gene PH1075; His-tagged HseDH
T2 sequence (O58802 1-319): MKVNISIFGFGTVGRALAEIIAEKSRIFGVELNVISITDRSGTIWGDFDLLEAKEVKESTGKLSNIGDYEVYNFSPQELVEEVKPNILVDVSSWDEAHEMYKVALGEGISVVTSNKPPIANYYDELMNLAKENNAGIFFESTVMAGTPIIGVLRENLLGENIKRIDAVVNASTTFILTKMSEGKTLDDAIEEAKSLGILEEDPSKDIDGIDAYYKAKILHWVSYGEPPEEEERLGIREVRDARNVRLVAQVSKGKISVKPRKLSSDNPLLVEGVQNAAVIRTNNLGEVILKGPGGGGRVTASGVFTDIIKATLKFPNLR

[3] = biological target: T3, homoserine dehydrogenase (HseDH) (Pyrococcus horikoshii, UniProt O58802, R40A); test: FT-ICR MS of cofactor released from purified protein; type: binding
T3 construct: gene PH1075; His-tagged HseDH
T3 sequence (O58802 1-319 R40A): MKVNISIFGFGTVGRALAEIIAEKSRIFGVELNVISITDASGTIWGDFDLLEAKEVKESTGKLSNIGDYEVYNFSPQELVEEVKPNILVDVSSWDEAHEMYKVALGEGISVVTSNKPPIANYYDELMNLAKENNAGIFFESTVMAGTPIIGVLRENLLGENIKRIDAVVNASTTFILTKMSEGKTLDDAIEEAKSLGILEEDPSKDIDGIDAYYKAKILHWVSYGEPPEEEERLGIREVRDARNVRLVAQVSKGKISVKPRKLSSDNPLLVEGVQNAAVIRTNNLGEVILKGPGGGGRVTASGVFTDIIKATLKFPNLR

[4] = biological target: T1, homoserine dehydrogenase (HseDH); test: crystal structure at […] Å (with Hse); FT-ICR MS; type: binding
[5] = biological target: T2, homoserine dehydrogenase (HseDH); test: crystal structure at […] Å; FT-ICR MS of released cofactor; type: binding; parameters: gene PH1075; ordered residues 1-319 in each subunit (homodimer)
[6] = substrate: NC(=O)C1=CN([C@@H]2O[C@H](COP(=O)(O)OP(=O)(O)OC[C@H]3O[C@@H](n4cnc5c(N)ncnc54)[C@H](O)[C@@H]3O)[C@@H](O)[C@H]2O)C=CC1; test: purified protein; details: varied: cofactor
[7] = substrate: N[C@@H](CCO)C(=O)O; test: purified protein; details: NAD
[8] = substrate: NC(=O)c1ccc[n+]([C@@H]2O[C@H](COP(=O)([O-])OP(=O)(O)OC[C@H]3O[C@@H](n4cnc5c(N)ncnc54)[C@H](O)[C@@H]3O)[C@@H](O)[C@H]2O)c1; test: purified protein; type: biochemical, Pyrococcus horikoshii; details: varied: cofactor
[9] = biological target: the molecule itself; test: SEC; gel filtration on Superose 6 10/300 GL, 10 mM Tris-HCl (pH 7.5) with 0.2 M NaCl; native mass against Bio-Rad gel filtration standards
[10] = substrate: NC(=O)c1ccc[n+]([C@@H]2O[C@H](COP(=O)(O)OP(=O)(O)OC[C@H]3O[C@@H](n4cnc5c(N)ncnc54)[C@H](OP(=O)(O)O)[C@@H]3O)[C@@H](O)[C@H]2O)c1; test: purified protein; type: biochemical, Pyrococcus horikoshii; details: varied: cofactor
[11] = biological target: the molecule itself; test: crystal structure; sitting-drop vapor diffusion at 20 °C; wild type: 0.1 M potassium phosphate pH 6.2, 20% MPD; K57A with 1 mM Hse: 16% PEG monomethyl ether 2000, 0.1 M citrate pH 6.5; one homodimer in the asymmetric unit

**Q.** Which “crystal structure at 2.43 Å (with NADPH)” value [1] does the source give for `N[C@@H](CCO)C(=O)O` [Hse] here?
**A.** extra density within the active site cavity, and after construction and refinement of the peptide chain, a Hse molecule could be modeled

**Q.** How did the Ki [2] turn out when `NC(=O)c1ccc[n+]([C@@H]2O[C@H](COP(=O)(O)OP(=O)(O)OC[C@H]3O[C@@H](n4cnc5c(N)ncnc54)[C@H](OP(=O)(O)O)[C@@H]3O)[C@@H](O)[C@H]2O)c1` [NADP] was run?
**A.** 5.2 ± 0.1 nM

**Q.** What does the source list for `NC(=O)C1=CN([C@@H]2O[C@H](COP(=O)(O)OP(=O)(O)OC[C@H]3O[C@@H](n4cnc5c(N)ncnc54)[C@H](OP(=O)(O)O)[C@@H]3O)[C@@H](O)[C@H]2O)C=CC1` [NADPH]?
**A.** FT-ICR MS of cofactor released from purified protein [3]: indicating that NADPH tightly bound to R40A, as in the case of the wild type enzyme; crystal structure at 2.43 Å (with Hse); FT-ICR MS [4]: we observed a clear density corresponding to the cofactor bound within the nucleotide-binding site; crystal structure at 2.30 Å; FT-ICR MS of released cofactor [5]: These results demonstrate that the molecule bound to P. horikoshii HseDH is NADPH.

B1: Pyrococcus horikoshii homoserine dehydrogenase (HseDH), His-tagged wild type (enzyme, UniProt O58802 1-319, looked up)
chain: MKVNISIFGFGTVGRALAEIIAEKSRIFGVELNVISITDRSGTIWGDFDLLEAKEVKESTGKLSNIGDYEVYNFSPQELVEEVKPNILVDVSSWDEAHEMYKVALGEGISVVTSNKPPIANYYDELMNLAKENNAGIFFESTVMAGTPIIGVLRENLLGENIKRIDAVVNASTTFILTKMSEGKTLDDAIEEAKSLGILEEDPSKDIDGIDAYYKAKILHWVSYGEPPEEEERLGIREVRDARNVRLVAQVSKGKISVKPRKLSSDNPLLVEGVQNAAVIRTNNLGEVILKGPGGGGRVTASGVFTDIIKATLKFPNLR
notes: Homoserine dehydrogenase, Pyrococcus horikoshii, open reading frame PH1075; amplified from the initiation codon to the termination codon; ordered residues 1-319 in each subunit of the crystal; calculated molecular weight 36,925; Expressed from pColdI (construct pCHseDH); the vector probably adds an N-terminal His6 tag with a factor Xa site (surmised); no tag removal is described; also called P. …
**Q.** B1 was tested. Which Km [6] did it give?
**A.** 19 ± 10 µM

**Q.** What about the Km [7] of the same molecule?
**A.** 6100 ± 100 µM

**Q.** What about the Km [8] of the same molecule?
**A.** 320 ± 40 µM

**Q.** And the Vmax [8]?
**A.** 114 µmol/min/mg

**Q.** And the kcat [8]?
**A.** 70.1 ± 4.5 s⁻¹

**Q.** And the kcat/Km [8]?
**A.** 219000 ± 13000 M⁻¹ s⁻¹

**Q.** And the “stoichiometry N” value [9]?
**A.** 2

B2: homoserine dehydrogenase (HseDH) (Pyrococcus horikoshii OT3; R40A) (protein)
chain: MKVNISIFGFGTVGRALAEIIAEKSRIFGVELNVISITDASGTIWGDFDLLEAKEVKESTGKLSNIGDYEVYNFSPQELVEEVKPNILVDVSSWDEAHEMYKVALGEGISVVTSNKPPIANYYDELMNLAKENNAGIFFESTVMAGTPIIGVLRENLLGENIKRIDAVVNASTTFILTKMSEGKTLDDAIEEAKSLGILEEDPSKDIDGIDAYYKAKILHWVSYGEPPEEEERLGIREVRDARNVRLVAQVSKGKISVKPRKLSSDNPLLVEGVQNAAVIRTNNLGEVILKGPGGGGRVTASGVFTDIIKATLKFPNLR
notes: His-tagged HseDH
**Q.** Which results are given for B2?
**A.** Km [10]: 40 ± 10 µM; Vmax [10]: 5.5 µmol/min/mg; kcat [10]: 3.4 ± 0.2 s⁻¹; kcat/Km [10]: 89100 ± 900 M⁻¹ s⁻¹

B3: Pyrococcus horikoshii homoserine dehydrogenase (HseDH) K57A mutant, His-tagged (enzyme, UniProt O58802 1-319, looked up)
chain: MKVNISIFGFGTVGRALAEIIAEKSRIFGVELNVISITDRSGTIWGDFDLLEAKEVAESTGKLSNIGDYEVYNFSPQELVEEVKPNILVDVSSWDEAHEMYKVALGEGISVVTSNKPPIANYYDELMNLAKENNAGIFFESTVMAGTPIIGVLRENLLGENIKRIDAVVNASTTFILTKMSEGKTLDDAIEEAKSLGILEEDPSKDIDGIDAYYKAKILHWVSYGEPPEEEERLGIREVRDARNVRLVAQVSKGKISVKPRKLSSDNPLLVEGVQNAAVIRTNNLGEVILKGPGGGGRVTASGVFTDIIKATLKFPNLR
notes: Homoserine dehydrogenase, Pyrococcus horikoshii, open reading frame PH1075, with K57A made by site-directed mutagenesis of pCHseDH; ordered residues 1-319 in each subunit of the crystal; Made from pCHseDH (pColdI); the vector probably adds an N-terminal His6 tag (surmised); Crystallized with Hse; source: E. coli BL21 (DE3) codon plus-RIPL, purified (same method as the His-tagged wild type)
**Q.** What does the source list for B3?
**A.** Km [10]: 60 ± 10 µM; Vmax [10]: 43.3 µmol/min/mg; kcat [10]: 26.7 ± 0.2 s⁻¹; kcat/Km [10]: 518000 ± 29000 M⁻¹ s⁻¹; binding result [11]: binds
